Data taken from the supplement of paper PMC9233669.
Variants at the floor of the assay were thinned out.

Legend:
[1] = tested on: biotinyl-Trp-oxazolone; experiment: self-aminoacylation, catalytic enhancement (BWO) (fold over background); higher = more active; k-Seq, kA / k0A0; sequences stand for … in GGGAAUGGAUCCACAUCUACGAAUUC…UUCACUGCAGACUUGACGAAGCUG
Outline: (§1)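 Mutagenized RNA pools with a 21-nt variable region (0.43 μM) were reacted with each biotinyl-aminoacyl-oxazolone at 2–1250 μM for 90 minutes at room temperature, in 50 μL HEPES/NaCl/KCl/MgCl2/CaCl2 buffer containing 5% acetonitrile at pH 6.9–7.0. RNA captured on streptavidin was quantified by triplicate qPCR and by Illumina sequencing. The fraction reacted for each sequence was fit to a pseudo-first-order model with bootstrapping, and catalytic enhancement is the median kA divided by the uncatalyzed rate, taken as the low-activity peak of a bimodal Gaussian fit.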

[2] = tested on: biotinyl-Val-oxazolone; experiment: self-aminoacylation, catalytic enhancement (BVO) (fold over background); higher = more active; k-Seq, kA / k0A0; sequences stand for … in GGGAAUGGAUCCACAUCUACGAAUUC…UUCACUGCAGACUUGACGAAGCUG
Outline: as §1

[3] = tested on: biotinyl-Leu-oxazolone; experiment: self-aminoacylation, catalytic enhancement (BLO) (fold over background); higher = more active; k-Seq, kA / k0A0; sequences stand for … in GGGAAUGGAUCCACAUCUACGAAUUC…UUCACUGCAGACUUGACGAAGCUG
Outline: as §1

[4] = tested on: biotinyl-Met-oxazolone; experiment: self-aminoacylation, catalytic enhancement (BMO) (fold over background); higher = more active; k-Seq, kA / k0A0; sequences stand for … in GGGAAUGGAUCCACAUCUACGAAUUC…UUCACUGCAGACUUGACGAAGCUG
Outline: as §1

[5] = tested on: biotinyl-Phe-oxazolone; experiment: self-aminoacylation, catalytic enhancement (BFO) (fold over background); higher = more active; k-Seq, kA / k0A0; sequences stand for … in GGGAAUGGAUCCACAUCUACGAAUUC…UUCACUGCAGACUUGACGAAGCUG
Outline: as §1

[6] = tested on: biotinyl-Ile-oxazolone; experiment: self-aminoacylation, catalytic enhancement (BIO) (fold over background); higher = more active; k-Seq, kA / k0A0; sequences stand for … in GGGAAUGGAUCCACAUCUACGAAUUC…UUCACUGCAGACUUGACGAAGCUG
Outline: as §1

Sequence | self-aminoacylation [1] | self-aminoacylation [2] | self-aminoacylation [3] | self-aminoacylation [4] | self-aminoacylation [5] | self-aminoacylation [6]
CUACUUCAAACAUUCGGUCUU [Fam1A.1 aminoacylation ribozyme variant] | 0.767 | 1.11 | 1.03 | 1.38 | 0.774 | 1.15
CUACUUCAAACAUUCGUUCUG [Fam1A.1 aminoacylation ribozyme variant] | 0.504 | 0.706 | 0.659 | 0.669 | 0.513 | 0.713
CUACUUCAAACCAUAGGUCUG [Fam1A.1 aminoacylation ribozyme variant] | 0.487 | 0.809 | 0.615 | 0.47 | 0.985 | 0.807
CUACUUCAAACCAUCGCUCUG [Fam1A.1 aminoacylation ribozyme variant] | 0.532 | 0.982 | 0.915 | 0.762 | 0.394 | 0.878
CUACUUCAAACCAUCGGGCUG [Fam1A.1 aminoacylation ribozyme variant] | 1.77 | 1.92 | 1.73 | 2.16 | 0.939 | 1.97
CUACUUCAAACCAUCGGUUUG [Fam1A.1 aminoacylation ribozyme variant] | 0.624 | 1.03 | 0.895 | 0.74 | 0.597 | 0.815
CUACUUCAAACGAUCGAUCUG [Fam1A.1 aminoacylation ribozyme variant] | 0.354 | 0.584 | 0.485 | 0.47 | 0.425 | 0.55
CUACUUCAAACGAUCGGUCUG [Fam1A.1 aminoacylation ribozyme variant] | 1.31 | 0.763 | 0.68 | 0.677 | 1.42 | 0.65
CUACUUCAAACUAUCGGCCUG [Fam1A.1 aminoacylation ribozyme variant] | 1.66 | 1.06 | 0.909 | 1.13 | 0.97 | 1.2
CUACUUCAAACUAUCGGUCUG [Fam1A.1 aminoacylation ribozyme variant] | 0.905 | 0.905 | 0.779 | 0.818 | 1.15 | 0.906
CUACUUCAAAGAAUCAGUCUG [Fam1A.1 aminoacylation ribozyme variant] | 1.7 | 0.803 | 0.68 | 0.677 | 3.34 | 0.759
CUACUUCAAAGAAUCGGUCUA [Fam1A.1 aminoacylation ribozyme variant] | 0.542 | 0.665 | 0.737 | 0.608 | 1.2 | 0.748
CUACUUCAAAGAAUCGGUUUG [Fam1A.1 aminoacylation ribozyme variant] | 4.68 | 0.785 | 0.845 | 0.933 | 5.29 | 0.892
CUACUUCAAAGAAUGGGUCUG [Fam1A.1 aminoacylation ribozyme variant] | 0.459 | 0.665 | 0.74 | 0.708 | 0.335 | 0.79
CUACUUCAAAUAAACGGUCUG [Fam1A.1 aminoacylation ribozyme variant] | 0.692 | 0.777 | 0.71 | 0.537 | 0.881 | 0.719
CUACUUCAAAUAAGCGGUCUG [Fam1A.1 aminoacylation ribozyme variant] | 0.575 | 0.799 | 0.824 | 0.797 | 0.945 | 0.958
CUACUUCAAAUAAUCGCUCUG [Fam1A.1 aminoacylation ribozyme variant] | 1.23 | 0.637 | 0.583 | 0.562 | 2.37 | 0.6
CUACUUCAAAUAAUCGGGCUG [Fam1A.1 aminoacylation ribozyme variant] | 3.35 | 0.85 | 0.965 | 0.607 | 4.76 | 0.911
CUACUUCAAAUAAUCGGUCAG [Fam1A.1 aminoacylation ribozyme variant] | 3.24 | 0.83 | 0.708 | 0.675 | 6.75 | 0.755
CUACUUCAAAUAAUCGGUGUG [Fam1A.1 aminoacylation ribozyme variant] | 2.4 | 0.826 | 1 | 0.983 | 3.23 | 0.826
CUACUUCAAAUAAUGGGUCUG [Fam1A.1 aminoacylation ribozyme variant] | 0.583 | 0.814 | 1.01 | 0.956 | 0.624 | 0.875
CUACUUCAAAUAAUUGGUCUG [Fam1A.1 aminoacylation ribozyme variant] | 0.637 | 0.802 | 0.869 | 0.953 | 1.19 | 0.844
CUACUUCAAAUACUCGGUCUG [Fam1A.1 aminoacylation ribozyme variant] | 0.71 | 0.84 | 0.807 | 0.972 | 0.622 | 0.832
CUACUUCAACCAAACGGUCUG [Fam1A.1 aminoacylation ribozyme variant] | 0.55 | 0.86 | 0.871 | 0.704 | 0.71 | 0.745
CUACUUCAACCAUUCGGUCUG [Fam1A.1 aminoacylation ribozyme variant] | 1.52 | 1.26 | 1.19 | 1.17 | 0.891 | 1.21
CUACUUCAACCCAUCGGUCUG [Fam1A.1 aminoacylation ribozyme variant] | 0.838 | 0.983 | 0.943 | 0.722 | 0.647 | 0.983

Sequence | self-aminoacylation [1] | self-aminoacylation [2] | self-aminoacylation [3] | self-aminoacylation [4] | self-aminoacylation [5] | self-aminoacylation [6]
CUACUUCAAGCAACCGGUCUG [Fam1A.1 aminoacylation ribozyme variant] | 0.799 | 0.837 | 0.947 | 0.943 | 1.06 | 0.883
CUACUUCAAGCAAUCAGUCUG [Fam1A.1 aminoacylation ribozyme variant] | 2.25 | 0.786 | 0.698 | 0.615 | 5.21 | 0.772
CUACUUCAAGCAAUCGCUCUG [Fam1A.1 aminoacylation ribozyme variant] | 1.17 | 0.943 | 1.28 | 1.07 | 1.13 | 0.99
CUACUUCAAGCAAUCGGUCAG [Fam1A.1 aminoacylation ribozyme variant] | 1.3 | 0.894 | 0.797 | 1.09 | 2.28 | 0.86
CUACUUCAAGCAAUCGGUCGG [Fam1A.1 aminoacylation ribozyme variant] | 4.8 | 1.25 | 1.69 | 1.08 | 5.87 | 1.53
CUACUUCAAGCAAUCGGUUUG [Fam1A.1 aminoacylation ribozyme variant] | 8.79 | 1.03 | 1.35 | 0.981 | 11.5 | 1.11
CUACUUCAAUUAAUCGGUCUG [Fam1A.1 aminoacylation ribozyme variant] | 13.9 | 0.985 | 1.33 | 1.03 | 18.7 | 1.08
CUACUUCACACAAUCGGUCUG [Fam1A.1 aminoacylation ribozyme variant] | 0.689 | 0.811 | 0.694 | 0.685 | 0.869 | 0.775
CUACUUCACACAAUGGGUCUG [Fam1A.1 aminoacylation ribozyme variant] | 0.589 | 0.754 | 0.775 | 0.826 | 0.647 | 0.865
CUACUUCACACAAUUGGUCUG [Fam1A.1 aminoacylation ribozyme variant] | 0.828 | 0.739 | 0.729 | 1 | 0.431 | 0.948
CUACUUCACACACUCGGUCUG [Fam1A.1 aminoacylation ribozyme variant] | 1.16 | 1.49 | 1.69 | 1.42 | 1.31 | 1.42
CUACUUCACACAGUCGGUCUG [Fam1A.1 aminoacylation ribozyme variant] | 0.682 | 0.731 | 0.682 | 0.619 | 0.389 | 0.65
CUACUUCACACCAUCGGUCUG [Fam1A.1 aminoacylation ribozyme variant] | 0.885 | 0.949 | 0.764 | 0.943 | 0.625 | 0.82
CUACUUCACUCAAUCGGUCUG [Fam1A.1 aminoacylation ribozyme variant] | 0.651 | 0.934 | 0.719 | 0.72 | 0.865 | 0.732
CUACUUCAGAAAAUCGGUCUG [Fam1A.1 aminoacylation ribozyme variant] | 0.826 | 0.816 | 0.757 | 0.803 | 1.55 | 0.791
CUACUUCAGACAAGCGGUCUG [Fam1A.1 aminoacylation ribozyme variant] | 0.406 | 0.96 | 0.966 | 1.26 | 0.263 | 0.839
CUACUUCAGACAAUCGAUCUG [Fam1A.1 aminoacylation ribozyme variant] | 0.493 | 0.634 | 0.477 | 0.542 | 0.994 | 0.669
CUACUUCAGACAAUCGGACUG [Fam1A.1 aminoacylation ribozyme variant] | 0.652 | 0.829 | 0.662 | 0.586 | 0.835 | 0.864
CUACUUCAGACAAUCGGUGUG [Fam1A.1 aminoacylation ribozyme variant] | 1.7 | 1.4 | 1.5 | 1.57 | 3.43 | 1.23
CUACUUCAGACAAUCGGUUUG [Fam1A.1 aminoacylation ribozyme variant] | 0.646 | 0.86 | 0.596 | 0.613 | 0.819 | 0.771
CUACUUCAGACAAUCGUUCUG [Fam1A.1 aminoacylation ribozyme variant] | 0.342 | 0.659 | 0.512 | 0.477 | 0.453 | 0.59
CUACUUCAGACAAUGGGUCUG [Fam1A.1 aminoacylation ribozyme variant] | 0.664 | 0.791 | 0.916 | 0.798 | 0.994 | 0.948
CUACUUCAGAGAAUCGGUCUG [Fam1A.1 aminoacylation ribozyme variant] | 0.7 | 0.806 | 0.853 | 0.951 | 0.895 | 0.846
CUACUUCAUACAAACGGUCUG [Fam1A.1 aminoacylation ribozyme variant] | 0.536 | 0.803 | 0.652 | 0.725 | 1.06 | 0.936
CUACUUCAUACAAUCGCUCUG [Fam1A.1 aminoacylation ribozyme variant] | 0.357 | 0.627 | 0.605 | 0.626 | 0.52 | 0.66
